First the molecules themselves.
B1: WW domain-binding protein 4, residues 8 to 43; numbered along this chain, O75554 (parent)
chain: QPKKFCDYCKCWIADNRPSVEFHERGKNHKENVAKR

± gives the uncertainty stated by the source.

The variants in the series derive from B1. The series is described as follows: abundance fitness (aPCA) (normalised: wild type 0, dead -1); higher = more abundant; growth selection in yeast, the domain comes from the species named. The conditions noted are these: Homo sapiens.
For the variant QPKKFCDYCKCWIADNRPSVEFHERGKNRKENVAKR [H29R], the abundance fitness was -0.626 ± 0.084.

Take QPKKFCDYCKCWIADNRPSVEFHERGKNVKENVAKR [H29V]: the abundance fitness is -0.349 ± 0.12. Next, QPKKFCDYCKCWIADNRPSVEFHERGKNWKENVAKR [H29W]: -0.481 ± 0.11; QPKKFCDYCKCWIADNRPSVEFHERGKNAKENVAKR [H29A]: -0.309 ± 0.096; QPKKFCDYCKCWIADNRPSVEFHERGKNYKENVAKR [H29Y]: -0.736 ± 0.18. Consider QPKKFCDYCKCWIADNRPSVEFHERGKNQKENVAKR [H29Q], for which the abundance fitness was -0.656 ± 0.14. Next, QPKKFCDYCKCWIADNRPSVEFHERGKNNKENVAKR [H29N]: -0.444 ± 0.099; QPKKFCDYCKCWIADNRPSVEFHERGKNSKENVAKR [H29S]: -0.542 ± 0.083. Consider QPKKFCDYCKCWIADNRPSVEFHERGKNEKENVAKR [H29E], for which the abundance fitness is -0.325 ± 0.11. For QPKKFCDYCKCWIADNRPSVEFHERGKNPKENVAKR [H29P] the value was -0.894 ± 0.46. For QPKKFCDYCKCWIADNRPSVEFHERGKNCKENVAKR [H29C] the value was -0.464 ± 0.25; for QPKKFCDYCKCWIADNRPSVEFHERGKNTKENVAKR [H29T], -0.63 ± 0.11.

With QPKKFCDYCKCWIADNRPSVEFHERGKNMKENVAKR [H29M], the abundance fitness is -0.475 ± 0.25. Next, QPKKFCDYCKCWIADNRPSVEFHERGKNHKERVAKR [N32R]: -0.1 ± 0.084; QPKKFCDYCKCWIADNRPSVEFHERGKNHKEWVAKR [N32W]: -0.115 ± 0.079; QPKKFCDYCKCWIADNRPSVEFHERGKNHKEFVAKR [N32F]: -0.405 ± 0.17.

As to QPKKFCDYCKCWIADNRPSVEFHERGKNHKEHVAKR [N32H], the abundance fitness was -0.172 ± 0.11. Consider QPKKFCDYCKCWIADNRPSVEFHERGKNHKEKVAKR [N32K], for which the abundance fitness was -0.111 ± 0.11. Take QPKKFCDYCKCWIADNRPSVEFHERGKNHKEYVAKR [N32Y]: the abundance fitness is -0.289 ± 0.14. For QPKKFCDYCKCWIADNRPSVEFHERGKNHKEVVAKR [N32V] the value was -0.294 ± 0.075; for QPKKFCDYCKCWIADNRPSVEFHERGKNHKEPVAKR [N32P], -0.473 ± 0.32.

As to QPKKFCDYCKCWIADNRPSVEFHERGKNHKEIVAKR [N32I], the abundance fitness was -0.446 ± 0.23.

With QPKKFCDYCKCWIADNRPSVEFHERGKNHKELVAKR [N32L], the abundance fitness is -0.166 ± 0.087. Take QPKKFCDYCKCWIADNRPSVEFHERGKNHKECVAKR [N32C]: the abundance fitness was -0.158 ± 0.1.

For QPKKFCDYCKCWIADNRPSVEFHERGKNHKETVAKR [N32T], the abundance fitness was -0.142 ± 0.13. For QPKKFCDYCKCWIADNRPSVEFHERGKNHKEMVAKR [N32M] the value was -0.228 ± 0.14. Next, QPKKFCDYCKCWIADNRPSVEFHERGKNHKEAVAKR [N32A]: 0.038 ± 0.08; QPKKFCDYCKCWIADNRPSVEFHERGKNHKESVAKR [N32S]: -0.086 ± 0.075; QPKKFCDYCKCWIADNRPSVEFHERGKNHKEDVAKR [N32D]: -0.49 ± 0.23. Regarding QPKKFCDYCKCWIADNRPSVEFHERGKNHKEQVAKR [N32Q], the abundance fitness is 0.035 ± 0.1.

As for QPKKFCDYCKCWIADNRPSVEFHERGKNHKENVQKR [A34Q], the abundance fitness was -0.289 ± 0.14.

Consider QPKKFCDYCKCWIADNRPSVEFHERGKNHKENVGKR [A34G], for which the abundance fitness is -0.036 ± 0.061.

On to QPKKFCDYCKCWIADNRPSVEFHERGKNHKENVIKR [A34I], for which the abundance fitness came to 0.089 ± 0.33.

On to QPKKFCDYCKCWIADNRPSVEFHERGKNHKENVPKR [A34P], for which the abundance fitness was -0.309 ± 0.26. For QPKKFCDYCKCWIADNRPSVEFHERGKNHKENVEKR [A34E] the value was -0.001 ± 0.13. As to QPKKFCDYCKCWIADNRPSVEFHERGKNHKENVHKR [A34H], the abundance fitness is -0.001 ± 0.12. For QPKKFCDYCKCWIADNRPSVEFHERGKNHKENVFKR [A34F] the value was -0.385 ± 0.13; for QPKKFCDYCKCWIADNRPSVEFHERGKNHKENVCKR [A34C], -0.135 ± 0.1. For QPKKFCDYCKCWIADNRPSVEFHERGKNHKENVKKR [A34K] the value was -0.098 ± 0.13; for QPKKFCDYCKCWIADNRPSVEFHERGKNHKENVLKR [A34L], -0.201 ± 0.096; for QPKKFCDYCKCWIADNRPSVEFHERGKNHKENVDKR [A34D], 0.351 ± 0.13.

With QPKKFCDYCKCWIADNRPSVEFHERGKNHKRNVAKR [E31R], the abundance fitness is -0.103 ± 0.063. Turning to QPKKFCDYCKCWIADNRPSVEFHERGKNHKANVAKR [E31A], the abundance fitness was 0.01 ± 0.068. As to QPKKFCDYCKCWIADNRPSVEFHERGKNHKLNVAKR [E31L], the abundance fitness was -0.229 ± 0.071. With QPKKFCDYCKCWIADNRPSVEFHERGKNHKCNVAKR [E31C], the abundance fitness is -0.302 ± 0.18. For QPKKFCDYCKCWIADNRPSVEFHERGKNHKKNVAKR [E31K] the value was -0.107 ± 0.09. Next, QPKKFCDYCKCWIADNRPSVEFHERGKNHKNNVAKR [E31N]: -0.346 ± 0.23; QPKKFCDYCKCWIADNRPSVEFHERGKNHKGNVAKR [E31G]: -0.153 ± 0.071; QPKKFCDYCKCWIADNRPSVEFHERGKNHKTNVAKR [E31T]: -0.259 ± 0.12. Regarding QPKKFCDYCKCWIADNRPSVEFHERGKNHKSNVAKR [E31S], the abundance fitness was -0.326 ± 0.13. Next, QPKKFCDYCKCWIADNRPSVEFHERGKNHKMNVAKR [E31M]: -0.065 ± 0.11; QPKKFCDYCKCWIADNRPSVEFHERGKNHKDNVAKR [E31D]: -0.093 ± 0.32. Next, QPKKFCDYCKCWIADNRPSVEFHERGKNHKVNVAKR [E31V]: -0.11 ± 0.086; QPKKFCDYCKCWIADNRPSVEFHERGKNHKHNVAKR [E31H]: -0.29 ± 0.2.

For QPKKFCDYCKCWIADNRPSVEFHERGKNHKQNVAKR [E31Q], the abundance fitness was -0.072 ± 0.14. For QPKKFCDYCKCWIADNRPSVEFHERGKNHKWNVAKR [E31W] the value was -0.955 ± 0.1; for QPKKFCDYCKCWIADNRPSVEFHERGKNHKPNVAKR [E31P], -0.332 ± 0.087; for QPKKFCDYCKCWIADNRPSVEFHERGANHKENVAKR [K27A], 0.026 ± 0.069. Next, QPKKFCDYCKCWIADNRPSVEFHERGDNHKENVAKR [K27D]: -0.192 ± 0.098. For QPKKFCDYCKCWIADNRPSVEFHERGWNHKENVAKR [K27W] the value was -0.218 ± 0.064; for QPKKFCDYCKCWIADNRPSVEFHERGFNHKENVAKR [K27F], -0.189 ± 0.13.

In the case of QPKKFCDYCKCWIADNRPSVEFHERGGNHKENVAKR [K27G], the abundance fitness is -0.096 ± 0.057.

For the variant QPKKFCDYCKCWIADNRPSVEFHERGSNHKENVAKR [K27S], the abundance fitness is -0.128 ± 0.1. Next, QPKKFCDYCKCWIADNRPSVEFHERGPNHKENVAKR [K27P]: -0.226 ± 0.11; QPKKFCDYCKCWIADNRPSVEFHERGENHKENVAKR [K27E]: 0.036 ± 0.073. Next, QPKKFCDYCKCWIADNRPSVEFHERGLNHKENVAKR [K27L]: -0.114 ± 0.061; QPKKFCDYCKCWIADNRPSVEFHERGQNHKENVAKR [K27Q]: -0.032 ± 0.096. With QPKKFCDYCKCWIADNRPSVEFHERGRNHKENVAKR [K27R], the abundance fitness was -0.08 ± 0.061.

QPKKFCDYCKCWIADNRPSVEFHERGMNHKENVAKR [K27M]: the abundance fitness was -0.115 ± 0.12.

For the origin of these results see the Human Domainome abundance scans (Beltran et al. 2025).
